The values below come from the nanobody polyreactivity screen of Harvey et al. (2022).

The nature of the series: yeast display, Sf9 membrane polyspecificity reagent, FACS + sequencing; frameworks hold sequencing errors. A digest of the protocol:
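Using colony PCR, genes from sorted yeast display clones were amplified, then sequenced on MiSeq at 2 × 250 and filtered by CDR length. The clones had been stained with 10% biotinylated, detergent-solubilized Sf9 membrane reagent for 1 hour at 4 °C and sorted by FACS into low and high (top ~1%) gates on anti-HA and streptavidin fluorescence. Polyreactivity labels come from the gate of origin.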
With “QVQLVESGGGFVQAGGSLRLSCAASGFTFKAYAMGLYRQAPGKERELVATINRSGTGTYYADSVKGRFTISRDYAKNTVYLLMNSLKPEDTAVYYCNKRSHHNYYTYDYWGQGTQVTVSS”, the “polyreactivity (PSR sort gate)” value is “high polyreactivity”.
For “QVQLVESGGGFVQAGGSLRLSCAASGRIFYGYAMGWYRQAPGKERELVAAISSGGITYYADSVKGRFTISRDNAKNTVYLQMNSLKPEDTAVYYCAADWAYYVASYLYYTFDYWGQGTQVTVSS”, the “polyreactivity (PSR sort gate)” value is listed as “low polyreactivity”.
In the case of “QVQLVESGGGFVQAGGSLRLSCAASGRTFRKYAMGWYRQAPGKERELVAAITSSGGSTYYADSVKGRFTISRDNAKNTVYLQMNSLKPEDTAVYYCAAGRHSEDNYWGQGTQVTVSS”, the “polyreactivity (PSR sort gate)” value is given as “high polyreactivity”.
On to “QVQLVESGGGFVQAGGSLRLSCAASGRTFSYYAMGCYRQAPGKERELVASISGGGRTNYADSVKGRFTISRDNAKNTVYLQMNSLKAEDTAVYYCAARYEVRHTLYNYWGQGTQVTVSS”, for which the “polyreactivity (PSR sort gate)” value is “high polyreactivity”.
To “QVQLVESGGGFVQAGGSLRLSCAASGRTFWNYAMGWYRPAPGKERELVAVIRFSDGSTYYADSVKGRFTISRDHAKNTVYLQMNSLKPEDTAVYYCAAKGPRRWGSGFDYWGQGTQVTVSS” belongs “low polyreactivity”; to “QVQLVESGGGFVQAGGSLRLSCAASGSIFDPYAMGWYIQAPGKERELVAAINWSGDSTYYADSVKGRFTISRDNAKNTVYLQMYSLKPEDTAVYYCAADPTDDTHLYYYWRQGTQVTVSS”, “low polyreactivity”; to “QVQLVESGGGFVQAGGSLRLSCAASGSIFDYYTMGWYRQAPGKERELVATIRSGDSTNYADSVKGRFTISRDNAKNTVYLPMNSLKPEDPAVYYCAADYGYQDDYWGQGTQVTVSS”, “low polyreactivity”.
To “QVQLVESGGGFVQAGGSLRLSCAASGSIFYTYVMGWYRQAPGKERELVAAITWSGGSTYYADSVKGRFTISRDNAKNTVYLQMNSLKPEDTAVYYCAAVRGYRSSKYDYWGQGTQVTVSS” belongs “high polyreactivity”; to “QVQLVESGGGFVQAGGSLRLSCAASGSIIKRNAMGWYRQAPGKERELVASISSGGSTKYADSVKGRFTLSRDNAKNTVYLQMNSLKPEDTAVYYCAKRSSQTRRAYDYWGQGTQVTVSS”, “low polyreactivity”.
To “QVQLVESGGGFVQAGGSLRLSCAASGSTFAYYAMGWDRQAPGKERELVAAITRGGRTYYADSVKGRFTISRDNPKNTVYLQMNSQKPDDTAVYYCNARKYTWYSSRFIRFDYWGQGTQVTVSS” belongs “high polyreactivity”; to “QVQLVESGGGFVQAGGSLRLSCAASGSTLPYYAMGWYRQAHGKERELVADITARGGTYYADSVKGRFTISRDNAKNTVYLQMNSLKPEDTAVYYCAAAYSLWQFYWDQGYDYWGQGTQVTVSS”, “high polyreactivity”.
Turning to “QVQLVESGGGFVQAGGSLRLSCAASGVTYGGYAMGWYRQAPGKERELVAAITGSAGNTFYADSVKGRFTISRDNAKHTVYLQMNSLKPEDTAVYYCANTWYPWSRYGYYGRYDSWGLGTQVTVSS”, the “polyreactivity (PSR sort gate)” value is on record as “low polyreactivity”.
To “QVQLVESGGGFVQAGGSLRLSCAASGYIFGIYAMGWYRQAPGKERELVAAISTSGGSTYYADSVKGRFTISRDNAKNTVYLQMNSLKPEDTAVYYCARPTTYGYYYWGQGTQVTVSS” belongs “high polyreactivity”.
As for “QVQLVESGGGFVQAGGSLRLSCAAYGRTFGRYAMGWYRQAPGKERELVAAIRSGGSTYYADSVKGRFTISRDNAKNTVYLQMNSLKPEDTAVYYCAADIARHLTVFAYYRLDYWGQGTQVTVSS”, the entry is “low polyreactivity”; as for “QVQLVESGGGFVQAGGSLRLTCAASALTFQYNAMGWYRQAPGKETELVAAISRSGGRTYYADSVKGRFTISRDNAKNTVYLQMNSLKPEDTAVYYCARRGGVVYSSGYNYLGQGTQVTVSS”, “high polyreactivity”; as for “QVQLVESGGGFVQARGSLRLSCAASGSIFWLYAMGWYSQAPGKERELVAAISWSTGGTYYADSVKGRFTISRDNAKNTVYLQMNSQKPEDTAVYYCNKLWVGKFKRYEFGYWGQGTQVTVSS”, “low polyreactivity”.
To “QVQLVESGGGIDQAGGSLRLSCAASGSNFYTYAMGWYRQAPGKEREFVAAITRGGARTYYADSVKWRFTISRDNAKNTVYLQMNSLKPEDTAVYYCAKLGKATTQVGSDYWGQGTQVSVSS” belongs “low polyreactivity”; to “QVQLVESGGGIDQAGGSLRLSCAASGSTFPRYAMGWYRQAPGKERELVAAISRSGGSTYYADSVKWRFTISRDNAKNTVDLQMNCLKPEDTAVYYCAGRYERGSYKYDYWGQGTEVTVSS”, “high polyreactivity”; to “QVQLVESGGGIVHAGGSLRLSCAASGSTFDSYARGWYRQAPGKERELVAAITDSGSSTYYADSVKGRFTISRDNAKNTVYLQMNSLKPEDSAVYYCANYDYHGWSYYRYDYWGQGTQVTVSS”, “low polyreactivity”.
On to “QVQLVESGGGIVQAGGILRLSSAASGRIFLGYAMGWSRQAPGKERELVASISGPAGSTNYADSVKGRFTISRDNAKNTVYLQMNSLKPEDTAVYYCAAEERYAYRYDYWGQGTQVTVSS”, for which the “polyreactivity (PSR sort gate)” value is reported as “high polyreactivity”.
As for “QVQLVESGGGIVQAGGRLRLRCAASGFTFGRYAMGWYRQEPGKEREFVAAITWSGGGTYYADSVKGRFTISRDNAKNTVYLQMNSLKPEDTAVYYCAADRRAYGGGYLGQGTQVTVSS”, the entry is “high polyreactivity”; as for “QVQLVESGGGIVQAGGRLRLSCAASGITFRFYAMGWYRQAPGKERELVAVISRGGGTTYYADSVKGRFTISRDNEKNTVYLEMNSLKPEDTEVFYCNAVFAWYRSDEYDYWGQGTLVTVSS”, “high polyreactivity”; as for “QVQLVESGGGIVQAGGRLRLSCAASGMIFYFYALGWYRPAPGKERELVAAITSGARTYYADSVKGRFTISRDNAKNTVYLQINSLKPEDTAVYYCAADVKRDRVWGGDYWGQGTQVTVSS”, “low polyreactivity”.
Take “QVQLVESGGGIVQAGGRLRLSCAASGRTSAVNAMVWYRQAPGKERELVAAITKSGGRTYYADSEKGRFTISRDNAKNTVYLQMNSLKPEDTAVYYCATSLLSRYGMDYWGQGTQVTVSS”: the “polyreactivity (PSR sort gate)” value is “high polyreactivity”.
To “QVQLVESGGGIVQAGGSIRLSCAASGRIFRYYAMGWYRQAPGKERELVATISRSGGSTFYAESVKGRFTISRDNAKNTVYLQMNSLIPEDTAVYYCNARYQTGGYGYWGQGTQVTVSS” belongs “high polyreactivity”; to “QVQLVESGGGIVQAGGSLPLSCAASGSTYNSYAMGWYRQAPGKDRELVAGISYIGGRTYYADSVKGRFTISRDNAKNTVYLQMNSLKPEDTAVYYCAAVYWYGRRKYYSWGQGTQVTVSS”, “high polyreactivity”; to “QVQLVESGGGIVQAGGSLPLSSAASGSTFPYNTMGWYIQAPGKERELVAAISQRGGSTYADSVKGRFTISRDNAKNTVYLEMNSLKPEDTAVYYCNKRNVYYSYPFDYDYWGQGTQVTVCS”, “low polyreactivity”.
For the sequence “QVQLVESGGGIVQAGGSLRLRCAASGSIFRFNAMGWYRQAPGKERDLVAAISSSGSSTYYADSVKGRFTISRDNSKNTVYLQMNSLKPEDTAVYYSAARNSYGNWRYYYWGQGTQVTVSS”, the “polyreactivity (PSR sort gate)” value is recorded as “high polyreactivity”.
To “QVQLVESGGGIVQAGGSLRLSCAASGFTCGPYAMGWYRQAPGKERELVATIRSGDSTNYADSVKGRFTISRDNAKNTVYLQMNSLKPEDTAVYYCARDARASARRKRYDYWGQGTQVTVSS” belongs “low polyreactivity”.
To “QVQLVESGGGIVQAGGSLRLSCAASGFTFGAYAMGWSRQAPGKEGELVASISWSGGSTYYADSVKGRFTISRDHAKNTVNLQMNSLKPEDTAVYYCNKDFVYPDDDGLFDYWGQGTQETVSS” belongs “low polyreactivity”.
To “QVQLVESGGGIVQAGGSLRLSCAASGFTFYRYAMGWYRQAPGKERELVAAITWSGGSTYYADSVKGRFTISRDNAKNTVYLQMNSLKPEDTAVYYCAADIYDGGFDYWGQGTQVTVSS” belongs “low polyreactivity”; to “QVQLVESGGGIVQAGGSLRLSCAASGGTFYYYAMGWYRQAPGKERELVATISYSGASTYYADSVKGRFTISRDNAKNTVYLQMNSLKPEDTAVYYCKARPYNHRYRAWMDYWGQGTQVTVSS”, “high polyreactivity”; to “QVQLVESGGGIVQAGGSLRLSCAASGIIFGYYAMGWYRQAPGKERELVAAISRRGGSTYYADSVKGRFTISRDNATITVYLQMHSLKPEDSAVSYCAAVELRLSTPDMESWVQGTQVTVSS”, “high polyreactivity”.
In the case of “QVQLVESGGGIVQAGGSLRLSCAASGIIFKAYAMGWYRKAPGKERELVAAITTGSTTYADSVKGRFTISRDNAKNTVYLQMNSLKPEDTAVYYCNARFDWGWPGYEYDYCGQGTQVTVSS”, the “polyreactivity (PSR sort gate)” value is given as “low polyreactivity”.
Regarding “QVQLVESGGGIVQAGGSLRLSCAASGIIFSWYAMGWYRQAPGKERELVAAISKGGGSTYYADSVKGRFTISRDNAKNTVYLQMNSLKPEDTAVYYCAAASSYGYGYWGQGTQVTVSS”, the “polyreactivity (PSR sort gate)” value is “high polyreactivity”.
To “QVQLVESGGGIVQAGGSLRLSCAASGITFEYNAIGWYRQAPGKARELVAAISQSSGSTYYADSVKGRFTISRDYAKNTVYLQMNSLKPEDTAVYYCNADTIIYEGGYWGQGTQVTVSS” belongs “low polyreactivity”.
As for “QVQLVESGGGIVQAGGSLRLSCAASGLISRVYAMGWSRQAPGKEWELVAAISSGGSTNYADSVKGRFTISRDNAKNTVYLQMNSLKPEETAGYYCAARGRRTGGHYNYWGQGTQETVSS”, the entry is “low polyreactivity”.
To “QVQLVESGGGIVQAGGSLRLSCAASGNTFGYYAIGWYRQAPGKERELVAAINFGGDTSYADSVKGRFTISRDNAKNTVYLQMNSLKPEDTAVYYCNRVPSWRIDYDYWGQGTQVTVSS” belongs “low polyreactivity”.
For the sequence “QVQLVESGGGIVQAGGSLRLSCAASGNTFYTYAMGWYRQAPGKERELVAAITSGGRTYADSVKGRFTISRDNATNTVYLQMNSLKPEDTAVYYCAADFPGFYYVYPGDYWGQGTQVTVSS”, the “polyreactivity (PSR sort gate)” value was “low polyreactivity”.
With “QVQLVESGGGIVQAGGSLRLSCAASGRIFGYYVMGWSRQAPGKESELVAAINYDGGSTYYADSVKGRFTISRDNAKNTVYLQMISLKPVDTAVYYWAAAIGNSEYGWRYDYWGQGTQVTVSS”, the “polyreactivity (PSR sort gate)” value is given as “low polyreactivity”.
To “QVQLVESGGGIVQAGGSLRLSCAASGRIFIWYDMGWYRQAPGKERELVAAITQSDDITYYADSVKGRFTISLDNAKNTVYLQMNSLKPEDTAVYYCAVDKPYPYRIIIWYEYDYWGQGTQVSVSS” belongs “low polyreactivity”.
